According to patent US20070036806A1:

Molecular target: human GLP-1 receptor (human) (UniProt P43220)
Assay: cell-based or functional assay

Sequence of human GLP-1 receptor (human) (P43220 24-463): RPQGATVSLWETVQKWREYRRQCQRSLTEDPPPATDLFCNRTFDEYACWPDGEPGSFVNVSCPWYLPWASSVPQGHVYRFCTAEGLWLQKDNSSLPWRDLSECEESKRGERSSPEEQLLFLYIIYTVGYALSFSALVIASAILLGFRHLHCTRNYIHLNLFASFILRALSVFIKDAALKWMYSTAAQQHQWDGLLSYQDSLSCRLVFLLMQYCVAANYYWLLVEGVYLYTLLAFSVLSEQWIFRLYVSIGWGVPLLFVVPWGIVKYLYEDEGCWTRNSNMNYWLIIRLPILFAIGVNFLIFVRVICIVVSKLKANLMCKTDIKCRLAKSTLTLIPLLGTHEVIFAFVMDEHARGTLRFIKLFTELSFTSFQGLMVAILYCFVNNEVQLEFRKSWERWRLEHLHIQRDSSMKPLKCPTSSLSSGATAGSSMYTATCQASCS
Sequence of Gly^8-Glu^22-GLP-1(7-37)-1.5L-IgG4(S228P, F234A, L235A) (Fc fusion) (main): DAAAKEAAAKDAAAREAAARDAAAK
Sequence of Gly^8-Glu^22-GLP-1(7-37)-2L-IgG4(S228P, F234A, L235A) (Fc fusion) (main): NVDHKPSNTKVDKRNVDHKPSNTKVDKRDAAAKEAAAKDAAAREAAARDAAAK

Which Activity (from EC50, relative to Val^8-GLP-1(7-37)OH); CRE-BLAM (beta-lactamase) reporter in HEK-293 cells expressing the human GLP-1 receptor does the source give for “Gly^8-Glu^22-Gly^36-GLP-1(7-37)-2L-IgG4(S228P, F234A, L235A) (Fc fusion)” here?
The Activity (from EC50, relative to Val^8-GLP-1(7-37)OH); CRE-BLAM (beta-lactamase) reporter in HEK-293 cells expressing the human GLP-1 receptor was 441%.

And the Activity (from EC50, relative to Val^8-GLP-1(7-37)OH, corrected for the 2-fold molarity of dimers); CRE-Luciferase reporter in HEK-293 cells stably expressing the human GLP-1 receptor?
The Activity (from EC50, relative to Val^8-GLP-1(7-37)OH, corrected for the 2-fold molarity of dimers); CRE-Luciferase reporter in HEK-293 cells stably expressing the human GLP-1 receptor was 398%.

For “Gly^8-Glu^22-GLP-1(7-37)-2L-IgG4(S228P, F234A, L235A) (Fc fusion)”, which Activity (from EC50, relative to Val^8-GLP-1(7-37)OH); CRE-BLAM (beta-lactamase) reporter in HEK-293 cells expressing the human GLP-1 receptor is on record?
Its Activity (from EC50, relative to Val^8-GLP-1(7-37)OH); CRE-BLAM (beta-lactamase) reporter in HEK-293 cells expressing the human GLP-1 receptor is 301%.

What about the Activity (from EC50, relative to Val^8-GLP-1(7-37)OH, corrected for the 2-fold molarity of dimers); CRE-Luciferase reporter in HEK-293 cells stably expressing the human GLP-1 receptor of the same substance?
Its Activity (from EC50, relative to Val^8-GLP-1(7-37)OH, corrected for the 2-fold molarity of dimers); CRE-Luciferase reporter in HEK-293 cells stably expressing the human GLP-1 receptor is 535%.

For “Gly^8-Glu^22-Gly^36-GLP-1(7-37)-1L-IgG4(S228P, F234A, L235A) (Fc fusion)”, which Activity (from EC50, relative to Val^8-GLP-1(7-37)OH, corrected for the 2-fold molarity of dimers); CRE-Luciferase reporter in HEK-293 cells stably expressing the human GLP-1 receptor is on record?
The Activity (from EC50, relative to Val^8-GLP-1(7-37)OH, corrected for the 2-fold molarity of dimers); CRE-Luciferase reporter in HEK-293 cells stably expressing the human GLP-1 receptor was 417%.

With “Gly^8-Glu^22-GLP-1(7-37)-1.5L-IgG4(S228P, F234A, L235A) (Fc fusion)” as the substance, how does the Activity (from EC50, relative to Val^8-GLP-1(7-37)OH); CRE-BLAM (beta-lactamase) reporter in HEK-293 cells expressing the human GLP-1 receptor read?
Its Activity (from EC50, relative to Val^8-GLP-1(7-37)OH); CRE-BLAM (beta-lactamase) reporter in HEK-293 cells expressing the human GLP-1 receptor is 314%.

And the Activity (from EC50, relative to Val^8-GLP-1(7-37)OH, corrected for the 2-fold molarity of dimers); CRE-Luciferase reporter in HEK-293 cells stably expressing the human GLP-1 receptor?
Its Activity (from EC50, relative to Val^8-GLP-1(7-37)OH, corrected for the 2-fold molarity of dimers); CRE-Luciferase reporter in HEK-293 cells stably expressing the human GLP-1 receptor is 595%.

For “Gly^8-Glu^22-GLP-1(7-37)-1L-IgG4(S228P, F234A, L235A) (Fc fusion)”, which Activity (from EC50, relative to Val^8-GLP-1(7-37)OH); CRE-BLAM (beta-lactamase) reporter in HEK-293 cells expressing the human GLP-1 receptor is on record?
Its Activity (from EC50, relative to Val^8-GLP-1(7-37)OH); CRE-BLAM (beta-lactamase) reporter in HEK-293 cells expressing the human GLP-1 receptor is 468%.

What about the Activity (from EC50, relative to Val^8-GLP-1(7-37)OH, corrected for the 2-fold molarity of dimers); CRE-Luciferase reporter in HEK-293 cells stably expressing the human GLP-1 receptor of the same substance?
Its Activity (from EC50, relative to Val^8-GLP-1(7-37)OH, corrected for the 2-fold molarity of dimers); CRE-Luciferase reporter in HEK-293 cells stably expressing the human GLP-1 receptor is 1120%.
